In the supplement of paper PMC10724198:
± gives the standard deviation of the averaged measurements.

Test system: Saccharomyces cerevisiae
Assay: protein stability index of tFT-peptide fusion (C-terminal peptide) (PSI (0-1 scale)); higher = more stable (slower turnover)
Conditions: temperature: 30 C
Description: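 MPS profiling in S. cerevisiae of the yeast C-terminome library: the last 12 aa of each annotated ORF are fused to the C-terminus of a sfGFP-mCherry timer, after a GGGS linker. Cells are FACS-sorted into 8 mCherry/sfGFP bins and deep-sequenced. PSI runs from 0 (unstable) to 1 (stable); wild type and das1Δ backgrounds, two technical replicates each.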

[1] = genetic background: das1 deletion

Sequence	protein stability index [1]	protein stability index (genetic background: wild type)
GALALGLISYLL [FIT2 C-terminal 12 aa]	0.695 ± 0.007	0.686 ± 0.014
IEFSMRSLCQGK [CFT1 C-terminal 12 aa]	0.7166 ± 0.0059	0.685 ± 0.038
EVDIGLYNCADY [ADE4 C-terminal 12 aa]	0.714 ± 0.05	0.667 ± 0.02
YKSKRNTPTMLS [ISU1 C-terminal 12 aa]	0.714 ± 0.027	0.653 ± 0.026
NENSEIISIDED [CTR86 C-terminal 12 aa]	0.676 ± 0.0078	0.65 ± 0.023
QHQQENPNLIDI [YAP1802 C-terminal 12 aa]	0.707 ± 0.024	0.734 ± 0.063
DASSTKNTDHIV [MEP2 C-terminal 12 aa]	0.678 ± 0.014	0.679 ± 0.068
NILKVDSNSSSS [RGR1 C-terminal 12 aa]	0.7201 ± 0.0019	0.702 ± 0.029
EVVRFYTIEAKL [AAT2 C-terminal 12 aa]	0.771 ± 0.032	0.724 ± 0.085
DKEWTNYATHIG [AYT1 C-terminal 12 aa]	0.696 ± 0.019	0.701 ± 0.013
NYTLTVENKNKV [SPC3 C-terminal 12 aa]	0.693 ± 0.051	0.734 ± 0.03
GALPTTDPLFQW [YJL043W C-terminal 12 aa]	0.7371 ± 0.0031	0.704 ± 0.0071
KIWVNIYSTPTS [PLS1 C-terminal 12 aa]	0.6827 ± 0.0066	0.705 ± 0.035
EGKWEPAGEVHQ [SEC13 C-terminal 12 aa]	0.706 ± 0.012	0.7167 ± 0.0048
RRLDDLETTMRM [SFH1 C-terminal 12 aa]	0.66 ± 0.015	0.662 ± 0.029
ARGAGGFGSTGN [DUT1 C-terminal 12 aa]	0.697 ± 0.0079	0.7208 ± 0.0062
VKKEPLNEESKP [MIA40 C-terminal 12 aa]	0.7041 ± 0.0021	0.679 ± 0.026
TSTNTIYATVTI [DSE2 C-terminal 12 aa]	0.688 ± 0.018	0.6656 ± 0.001
VIWQERETTANK [EMI1 C-terminal 12 aa]	0.724 ± 0.033	0.676 ± 0.038
FRQSWQIDIGTW [YAL037C-B C-terminal 12 aa]	0.7097 ± 0.0042	0.676 ± 0.017
VIWEKVYESKTK [LSM8 C-terminal 12 aa]	0.724 ± 0.018	0.761 ± 0.057

Sequence	protein stability index [1]	protein stability index (genetic background: wild type)
VIWDNNTKFCWF [YGR111W C-terminal 12 aa]	0.742 ± 0.0097	0.73063 ± 0.00022
IMTSEIVTNALR [YEL030C-A C-terminal 12 aa]	0.70774 ± 0.00013	0.705 ± 0.022
RQRQLKSPQNVL [TYW3 C-terminal 12 aa]	0.714 ± 0.017	0.696 ± 0.046
IYAALPKSKIKL [YMR304C-A C-terminal 12 aa]	0.698 ± 0.012	0.737 ± 0.013
KRFTTNRNGNVI [GEF1 C-terminal 12 aa]	0.732 ± 0.022	0.696 ± 0.027
HWQYMKDYLNLY [SLI1 C-terminal 12 aa]	0.715 ± 0.033	0.684 ± 0.06
AVGETRLKKSKK [PRP21 C-terminal 12 aa]	0.689 ± 0.016	0.779 ± 0.12
RKEIRKQKRATF [MRPS28 C-terminal 12 aa]	0.709 ± 0.059	0.734 ± 0.028
SVFIASLLLAII [FLO1 C-terminal 12 aa]	0.31 ± 0.0059	0.323 ± 0.021
TAIAHRAYIQLK [RSM7 C-terminal 12 aa]	0.709 ± 0.035	0.685 ± 0.033
KALKWEEQELNM [CCM1 C-terminal 12 aa]	0.711 ± 0.015	0.729 ± 0.057
IPPLIWLRKKRC [PUL3 C-terminal 12 aa]	0.69553 ± 0.00032	0.664 ± 0.0097
IDVELEEESFTW [FRE1 C-terminal 12 aa]	0.698 ± 0.024	0.743 ± 0.022
CYYKTQKSQISN [SIP1 C-terminal 12 aa]	0.715 ± 0.011	0.727 ± 0.016
LTFDVKLVSMKN [FPR3 C-terminal 12 aa]	0.679 ± 0.025	0.667 ± 0.046
EDESLNSSRSTT [RCF3 C-terminal 12 aa]	0.6802 ± 0.0033	0.691 ± 0.013
WRPQQPGQIEQA [YLR101C C-terminal 12 aa]	0.723 ± 0.03	0.6668 ± 0.00094
STICRDIILIPN [CHK1 C-terminal 12 aa]	0.688 ± 0.03	0.6527 ± 0.0013
QIDDVNILKKNP [LIP2 C-terminal 12 aa]	0.709 ± 0.009	0.702 ± 0.053
MPPEHPFYSHYR [YNL193W C-terminal 12 aa]	0.7283 ± 0.0031	0.729 ± 0.01
